Patent US20240209107A1 (Sanofi, published 2024)

T1: human OX40 (10481-H08H, Sino Biological), recombinant (human, UniProt P43489 29-216)
T1 construct: Bought protein
T1 sequence (looked up): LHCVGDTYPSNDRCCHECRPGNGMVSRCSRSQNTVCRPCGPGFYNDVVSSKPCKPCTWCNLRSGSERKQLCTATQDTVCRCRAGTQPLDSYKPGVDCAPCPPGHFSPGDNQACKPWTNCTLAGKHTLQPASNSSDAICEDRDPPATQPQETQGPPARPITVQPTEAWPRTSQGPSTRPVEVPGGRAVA

T2: human OX40 on the surface of cells (HEK293 cells expressing human OX40, jurkat cells engineered to express … (human, UniProt P43489 29-277))
T2 construct: whole, on cells; also called huOX40
T2 sequence (looked up): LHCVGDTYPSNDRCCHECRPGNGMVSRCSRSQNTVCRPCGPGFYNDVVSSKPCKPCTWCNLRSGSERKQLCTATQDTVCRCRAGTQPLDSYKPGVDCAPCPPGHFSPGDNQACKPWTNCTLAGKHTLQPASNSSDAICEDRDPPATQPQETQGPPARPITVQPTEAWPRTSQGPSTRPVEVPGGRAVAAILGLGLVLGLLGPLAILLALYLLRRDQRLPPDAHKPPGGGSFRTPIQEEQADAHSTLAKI

T3: Human OX40 (amino acids 29-170 of human OX40) (human, UniProt P43489 29-170)
T3 construct: range 29-170
T3 sequence (looked up): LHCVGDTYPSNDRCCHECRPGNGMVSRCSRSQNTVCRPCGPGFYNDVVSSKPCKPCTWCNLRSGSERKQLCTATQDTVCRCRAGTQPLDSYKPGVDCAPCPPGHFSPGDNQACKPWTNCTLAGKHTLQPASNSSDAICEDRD


What was measured:
[1] = target: T4, human FcRn (Immunitrack, ITF01-200) (human, UniProt P55899 24-297; P61769 21-119); experiment: SPR (Biacore 8K), FcRn captured on CAP chip, bispecific as analyte, pH 6.0, steady state
T4 construct: captured on a Series S Sensor Chip CAP; also called recombinant human FcRN
T4 sequence (P55899 24-297 limits assumed, chain 1 of 2): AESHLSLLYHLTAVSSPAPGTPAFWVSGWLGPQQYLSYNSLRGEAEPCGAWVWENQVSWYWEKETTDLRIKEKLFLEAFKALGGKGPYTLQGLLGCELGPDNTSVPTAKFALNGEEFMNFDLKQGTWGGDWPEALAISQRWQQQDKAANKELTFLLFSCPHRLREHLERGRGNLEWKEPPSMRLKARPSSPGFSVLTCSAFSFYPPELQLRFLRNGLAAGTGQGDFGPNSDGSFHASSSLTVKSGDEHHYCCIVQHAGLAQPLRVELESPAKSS
T4 sequence (P61769 21-119 limits assumed, chain 2 of 2): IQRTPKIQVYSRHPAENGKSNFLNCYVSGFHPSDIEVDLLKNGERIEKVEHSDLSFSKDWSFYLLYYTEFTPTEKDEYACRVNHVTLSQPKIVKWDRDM

[2] = target: T5, human CD28 (CD28-3910H, Creative Bio Mart), recombinant (human, UniProt P10747 19-152); experiment: SPR (Biacore 8K), bispecific captured by anti-human Fc, antigen as analyte, 1:1 model
T5 construct: Bought protein
T5 sequence (P10747 19-152 limits assumed): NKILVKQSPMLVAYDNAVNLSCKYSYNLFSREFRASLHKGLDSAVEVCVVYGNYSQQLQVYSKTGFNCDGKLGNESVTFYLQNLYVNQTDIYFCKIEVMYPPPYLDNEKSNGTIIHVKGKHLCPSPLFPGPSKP

[3] = target: T1, human OX40 (10481-H08H, Sino …); experiment: as above
[4] = target: T6, cyno OX40 (internal production), recombinant (cynomolgus monkey); experiment: as above
T6 construct: also called Cynomolgus Monkey OX40

[5] = target: T2, human OX40 on the surface of cells …; experiment: flow cytometry on HEK293 cells expressing human OX40; anti-human IgG Fc PE secondary; MFI
[6] = target: T7, CD28-His (amino acids 19-136 of human CD28) (human, UniProt P10747 19-136); experiment: complex formation, SEC, crystal structure
T7 construct: Expressed in Expi293 cells, purified by HisTrap and SEC; also called Human CD28 Amino acids 19-136; not shown: His tag

[7] = target: T3, Human OX40 (amino acids 29-170 of human …); experiment: structure of the complex

Binder	Kd [1]	Kd [2]	Kd [3]	Kd [4]	EC50 (read off the curve) [5]	binding result [6]	binding result [7]
bispecific antibody L1 (anti-CD28 VHH x anti-OX40 Fab, human IgG1 Fc) (bispecific antibody, Three chains: anti-OX40 light chain (I), anti-OX40 heavy chain (II), anti-CD28 VHH-Fc chain (III); also called lead candidate L1) light: not shown heavy: not shown DVQLVESGGGVVQPGGSLRLSCAASGSFFSIDTMDWYRQAPGKQRELVTGVTSGGLTNYADSVKGRFTISIDNAKNTVYLQMNSLRPEDTALYYCSARIRTSGGGGWSTYWGQGTLVTVSSGGGGSDKTHTCPPCPAPEAAGGPSVFLFPPKPKDTLMISRTPEVTCVVVDVSHEDPEVKFNWYVDGVEVHNAKTKPREEQYNSTYRVVSVLTVLHQDWLNGKEYKCKVSNKALPAPIEKTISKAKGQPREPQVCTLPPSRDELTKNQVSLSCAVKGFYPSDIAVEWESNGQPENNYKTTPPVLDSDGSFFLVSKLTVDKSRWQQGNVFSCSVMHEALHNRFTQKSLSLSPG	924 nM	3.6 nM	4.3 nM	2.9 nM	~0.7 nM		
bispecific antibody L2 (anti-CD28 VHH x anti-OX40 Fab, human IgG1 Fc) (bispecific antibody, Three chains: anti-OX40 light chain (I), anti-OX40 heavy chain (II), anti-CD28 VHH-Fc chain (III); also called lead candidate L2) light: not shown heavy: not shown DVQLVESGGGVVQPGGSLRLSCAASGSFFSIDTMDWYRQAPGKQRELVTGVTSGGLTNYADSVKGRFTISIDNAKNTVYLQMNSLRPEDTALYYCSARIRTSGGGGWSTYWGQGTLVTVSSGGGGSDKTHTCPPCPAPEAAGGPSVFLFPPKPKDTLMISRTPEVTCVVVDVSHEDPEVKFNWYVDGVEVHNAKTKPREEQYNSTYRVVSVLTVLHQDWLNGKEYKCKVSNKALPAPIEKTISKAKGQPREPQVCTLPPSRDELTKNQVSLSCAVKGFYPSDIAVEWESNGQPENNYKTTPPVLDSDGSFFLVSKLTVDKSRWQQGNVFSCSVMHEALHNRFTQKSLSLSPG	988 nM	3.23 nM	6.9 nM	4 nM	~1 nM		
bispecific antibody L3 (anti-CD28 VHH x anti-OX40 Fab, human IgG1 Fc) (bispecific antibody, Three chains: anti-OX40 light chain (I), anti-OX40 heavy chain (II), anti-CD28 VHH-Fc chain (III); also called lead candidate L3) light: not shown heavy: not shown DVQLVESGGGVVQPGGSLRLSCAASGSFFSIDTMDWYRQAPGKQRELVTGVTSGGLTNYADSVKGRFTISIDNAKNTVYLQMNSLRPEDTALYYCSARIRTSGGGGWSTYWGQGTLVTVSSGGGGSDKTHTCPPCPAPEAAGGPSVFLFPPKPKDTLMISRTPEVTCVVVDVSHEDPEVKFNWYVDGVEVHNAKTKPREEQYNSTYRVVSVLTVLHQDWLNGKEYKCKVSNKALPAPIEKTISKAKGQPREPQVCTLPPSRDELTKNQVSLSCAVKGFYPSDIAVEWESNGQPENNYKTTPPVLDSDGSFFLVSKLTVDKSRWQQGNVFSCSVMHEALHNRFTQKSLSLSPG	990 nM	3.3 nM	8.1 nM	15 nM	~1 nM		
bispecific antibody L4 (anti-CD28 VHH x anti-OX40 Fab, human IgG1 Fc) (bispecific antibody, Three chains: anti-OX40 light chain (I), anti-OX40 heavy chain (II), anti-CD28 VHH-Fc chain (III); also called lead candidate L4) light: not shown heavy: not shown DVQLVESGGGVVQPGGSLRLSCAASGFTFSSYYMSWVRQAPGKGLEWVSTINTDGDFTSYADSVKGRFTISRDNAKNTLYLQMNSLRPEDTALYYCARARGPYSRGSQGHDYRGQGTLVTVSSGGGGSDKTHTCPPCPAPEAAGGPSVFLFPPKPKDTLMISRTPEVTCVVVDVSHEDPEVKFNWYVDGVEVHNAKTKPREEQYNSTYRVVSVLTVLHQDWLNGKEYKCKVSNKALPAPIEKTISKAKGQPREPQVCTLPPSRDELTKNQVSLSCAVKGFYPSDIAVEWESNGQPENNYKTTPPVLDSDGSFFLVSKLTVDKSRWQQGNVFSCSVMHEALHNRFTQKSLSLSPG	574 nM	11.9 nM	4.1 nM	3.7 nM	~1 nM		
bispecific antibody L5 (anti-CD28 VHH x anti-OX40 Fab, human IgG1 Fc) (bispecific antibody, Three chains: anti-OX40 light chain (I), anti-OX40 heavy chain (II), anti-CD28 VHH-Fc chain (III); also called lead candidate L5) light: not shown heavy: not shown DVQLVESGGGVVQPGGSLRLSCAASGFTFSSYYMSWVRQAPGKGLEWVSTINTDGDFTSYADSVKGRFTISRDNAKNTLYLQMNSLRPEDTALYYCARARGPYSRGSQGHDYRGQGTLVTVSSGGGGSDKTHTCPPCPAPEAAGGPSVFLFPPKPKDTLMISRTPEVTCVVVDVSHEDPEVKFNWYVDGVEVHNAKTKPREEQYNSTYRVVSVLTVLHQDWLNGKEYKCKVSNKALPAPIEKTISKAKGQPREPQVCTLPPSRDELTKNQVSLSCAVKGFYPSDIAVEWESNGQPENNYKTTPPVLDSDGSFFLVSKLTVDKSRWQQGNVFSCSVMHEALHNRFTQKSLSLSPG	714 nM	9.99 nM	6.1 nM	3.3 nM	~1 nM		
bispecific antibody L6 (anti-CD28 VHH x anti-OX40 Fab, human IgG1 Fc) (bispecific antibody, Three chains: anti-OX40 light chain (I), anti-OX40 heavy chain (II), anti-CD28 VHH-Fc chain (III); also called lead candidate L6) light: not shown heavy: not shown DVQLVESGGGVVQPGGSLRLSCAASGFTFSSYYMSWVRQAPGKGLEWVSTINTDGDFTSYADSVKGRFTISRDNAKNTLYLQMNSLRPEDTALYYCARARGPYSRGSQGHDYRGQGTLVTVSSGGGGSDKTHTCPPCPAPEAAGGPSVFLFPPKPKDTLMISRTPEVTCVVVDVSHEDPEVKFNWYVDGVEVHNAKTKPREEQYNSTYRVVSVLTVLHQDWLNGKEYKCKVSNKALPAPIEKTISKAKGQPREPQVCTLPPSRDELTKNQVSLSCAVKGFYPSDIAVEWESNGQPENNYKTTPPVLDSDGSFFLVSKLTVDKSRWQQGNVFSCSVMHEALHNRFTQKSLSLSPG	745 nM	11.3 nM	8.1 nM	20 nM	~1 nM		
L4 & L6 & L5 CD28 arm VHH (VHH-His) (VHH, Used as VHH-His in the crystal structure with CD28-His; also called L4, L6 & L5 CD28 VHH; not shown: His tag) VHH: DVQLVESGGGVVQPGGSLRLSCAASGFTFSSYYMSWVRQAPGKGLEWVSTINTDGDFTSYADSVKGRFTISRDNAKNTLYLQMNSLRPEDTALYYCARARGPYSRGSQGHDYRGQGTLVTVSS						binds	
prototype OX40 arm Fab (Fab, V domains shown, Fab of the OX40 arm of the bispecific CD28-OX40 prototype; also called prototype arm) VH: EVQLVESGGVVVQPGGSLRLSCAASGFTFDDYTMHWVRQAPGKGLEWVSLISWDGGSTYYADSVKGRFTISRDNSKNSLYLQMNSLRTEDTAVYYCARDNLWGYLTYFDYWGQGTLVTVSS VL: QSVLTQPPSVSAAPGQKVTISCSGSSSNIGNNYVSWYQQLPGTAPKLLIYDNNKRPSGIPDRFSGSKSGTSATLGITGLQTGDEADYYCGTWDSSLTAYVFGGGTKLTVL							binds
